In publication PMC6412877, “Novel Site-Specific Fatty Chain-Modified GLP-1 Receptor Agonist with Potent Antidiabetic Effects” (Molecules, 2019):

B1: PEP04 (peptide)
peptide: FTSEGTSSYLET
B2: PEP06 (peptide)
peptide: EFIATAWLVKQT
B3: PEP10 (peptide)
peptide: FTSEGTSSYLETGGPSSGAPPPS
B4: PEP07 (peptide)
peptide: FFYSSPSAYLETGGPSSGAPPPS
B5: PEP01 (peptide)
peptide: FFYSSPSAYLET
B6: PEP11 (peptide)
peptide: YSHAYLEETQRFGGPSSGAPPPS
B7: PEP12 (peptide)
peptide: EFIATAWLVKQTGGPSSGAPPPS
B8: PEP08 (peptide)
peptide: KEYSSPAATQRFGGPSSGAPPPS
B9: PEP05 (peptide)
peptide: YSHAYLEETQRF
B10: PEP02 (peptide)
peptide: KEYSSPAATQRF
B11: PEP03 (peptide)
peptide: KQYSSPTAWLVG

Target: Glucagon-like peptide-1 receptor extracellular domain
Test: SPR; Biacore 8K, according to the user's manual; who was immobilised and the conditions are not stated

Q: For B1, which Kd is on record?
A: 3990 nM

Q: For B2, which Kd is on record?
A: 2590 nM

Q: With B3 as the binder, how does the Kd read?
A: 3000 nM

Q: For B4, which Kd is on record?
A: 24 nM

Q: For B5, which Kd is on record?
A: 740 nM

Q: Which Kd does the source give for B6 here?
A: 1250 nM

Q: How did the Kd turn out when B7 was run?
A: 1090 nM

Q: For B8, which Kd is on record?
A: 151 nM

Q: With B9 as the binder, how does the Kd read?
A: 2210 nM

Q: With B10 as the binder, how does the Kd read?
A: 1050 nM

Q: For B11, which Kd is on record?
A: 1750 nM
